Consider two molecules from US20110223176A1 (AbbVie / Abbott, published 2011).

As a reminder, the Kd is a measure of binding affinity in units of concentration. Broadly, the EC50 is the midpoint of the concentration-response curve. For orientation: koff means a measure of how fast the partners let go of each other. By kon is commonly meant the rate constant with which the complex forms.

Experiment [1] addresses T1, human BSG2 (basigin isoform 2) on the cell surface (human, UniProt P35613 140-385).
T1 construct: Presented on stably transfected BAF3 cells or endogenously on human tumor cell lines (HepG2, MiaPaCa-2, DoHH-2); also called hBSG2; CD147
T1 sequence: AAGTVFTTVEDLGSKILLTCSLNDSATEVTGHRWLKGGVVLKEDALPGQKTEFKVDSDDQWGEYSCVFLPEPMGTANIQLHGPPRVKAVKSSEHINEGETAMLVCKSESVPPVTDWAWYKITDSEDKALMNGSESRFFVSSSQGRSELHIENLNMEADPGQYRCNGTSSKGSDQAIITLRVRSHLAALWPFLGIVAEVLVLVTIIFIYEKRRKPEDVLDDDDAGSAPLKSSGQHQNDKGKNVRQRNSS
The experiment in a line: receptor binding assay, Eu-labeled antibody on cells expressing human BSG2. As for the experimental part:
Cell lines expressing BSG2 were harvested and washed once in assay buffer (PBS, 0.1% BSA, 0.02% Na Azide, 10 mM EDTA) and resuspended to 5×10⁶ cells per mL. Serial 1:2 dilutions of ⁺³Eu-labeled anti-BSG2 antibody stock in assay buffer were made for final concentrations ranging from 1.6×10⁻⁸-7.7×10⁻¹² M, and a 4 mg/mL solution of unlabeled anti-BSG2 antibody was also prepared. To 96 well round bottom plates, 25 μl of ⁺³Eu-labeled antibody dilutions were added to 25 μl buffer (total counts), or 25 μl of unlabeled antibody were added to 25 μl buffer (background counts). 50 μl of cells at 2.5×10⁵ cells per well were then added to all samples, mixed gently, and incubated on ice for 1 hour. Cell bound antibody was then separated from unbound antibody by transferring 20 μL of the reaction mixture to Acrowell 96 well filter plates (Pall PN 5020), centrifuged for 5 min (2200 rpm), washed 3× with 150 μL cold assay buffer, and centrifuged for 5 min. Signal was determined by incubating samples with 150 μL/well of enhancement buffer and read using Envision. The specific counts were determined by subtracting the background counts (cells+labeled antibody+excess cold antibody) from the corresponding total counts (cells+labeled antibody) for each antibody concentration. The labeled antibody concentration versus total counts was analyzed using Graphpad Prism 4 to calculate Kd and Bmax values.
(§1) BSG2 antibody binding activities against whole cells expressing human or cynomolgus monkey BSG2 were assessed by ECL using MSD technology (described in Example 1.3) and the receptor binding assay (described in Example 1.4) and are shown in Table 11.

Experiment [2] deals with T1, human BSG2 (basigin isoform 2) on the …. The experiment in a line: flow cytometry (FACS) on HepG2 hepatocellular carcinoma cells (cell-surface BSG2). The method, then:
(§2) Stable cell lines overexpressing cell-surface BSG2 or human tumor cell lines were harvested from tissue culture flasks, washed three times and resuspended in phosphate buffered saline (PBS) containing 1% bovine serum albumin and 1 mM CaCl₂ (FACS buffer). 5×10⁵ cells were incubated with antibodies at various concentrations in FACS buffer for 60 minutes on ice. Cells were washed twice and the bound murine monoclonal antibody was detected with a goat Fab′2 anti-mouse IgM+IgG+IgA (H+L) R-phycoerythrin-conjugated antibody (Southern Biotechnology Associates, Inc., Birmingham, Ala., Catalog No. 1012-08) diluted 1:500. Following incubation on ice (4° C., 60 minutes), cells were washed three times and resuspended in FACS buffer. Fluorescence was measured using a Becton Dickinson FACSCalibur-HTS (Becton Dickinson, San Jose, Calif., US). Data were analyzed using Graphpad Prism software and EC₅₀ values were reported as the concentration of antibody to achieve 50% of maximal BSG2 antibodies binding to BSG2 expressing cells.
For orientation: A flow cytometer gives signals particle by particle.

Experiment [3] concerns the target T2, purified recombinant human BSG2 extracellular domain (human, UniProt P35613 22-325).
T2 construct: also called Human BSG2 ECD
T2 sequence: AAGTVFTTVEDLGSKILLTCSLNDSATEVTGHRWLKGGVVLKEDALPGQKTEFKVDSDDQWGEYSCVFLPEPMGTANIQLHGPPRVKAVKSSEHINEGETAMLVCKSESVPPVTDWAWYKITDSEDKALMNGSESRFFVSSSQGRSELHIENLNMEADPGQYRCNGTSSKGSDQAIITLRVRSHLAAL
The experiment in a line: SPR (Biacore), mAb captured by anti-mouse Fc, BSG2 ECD injected, 25 C. The method, then: (§3) Binding of BSG2 antibodies to a purified recombinant BSG2 extracellular domain (ECD) was determined by surface plasmon resonance-based measurements with a Biacore® instrument (either a Biacore 2000, Biacore 3000, or Biacore T100; GE Healthcare, Piscataway, N.J., US). The assay format for mAb affinity analysis was Fc-based capture via immobilized anti-Fc IgG. A standard amine coupling protocol was employed to immobilize Fc-specific IgG via primary amines to the carboxy-methyl (CM) dextran surface of CMS sensorchips. For the study of mouse anti-human BSG2 mAbs, anti-mouse Fc was used as the immobilized capture reagent. An automated protocol, available on the Biacore 2000, was used to immobilize 8000-10000RU of capture reagent in all 4 flowcells of the sensorchip. Binding was recorded as a function of time and kinetic rate constants were calculated. In this assay, on-rates as fast as 10⁷M⁻¹ s⁻¹ and off-rates as slow as 10⁻⁵ s⁻¹ can be measured.
(§4) Briefly, the CM-dextran surfaces were activated by freshly prepared 1:1 […] 3-(N,N-dimethylamino)propyl-N-ethylcarbodiimide (EDC). Then the anti-Fc IgG capture reagent (20 μg/ml in 10 mM sodium acetate, pH 4.5) was applied to the surface followed by deactivation of the surface and blocking of the residual reactive sites with 1M ethanolamine (pH 8.5). The running buffer employed was PBS-PB [1×PBS (Sigma P3813), pH 7.4, 0.005% P20 surfactant, 0.1 mg/ml BSA (Sigma-A7906)] and the assay temperature was 25° C. All reagents were diluted into running buffer to the specified concentrations. Each experimental cycle consisted of the following steps: (1) anti-BSG2 mAbs at 0.5 to 1 μg/ml were captured in flowcells 2, 3 or 4 to a level of 100-120RU. All measurements were referenced against flowcell 1 which had no captured anti-BSG2 mAb; (2) human BSG2 ECD was injected through all 4 flowcells, 240 μl at 80 μl/min. After the antigen injection, dissociation was monitored for 600 seconds at 80 μl/min; and (3) the anti-Fc capture surface was regenerated with 10 mM glycine, pH 1.5.
(§5) The BSG2 antibody binding affinities were determined by the BIACORE technology as described in Example 1.2. Table 10 represents the antibody binding kinetics against human and cynomolgus monkey BSG2 extracellular domain (ECD).
In general terms: Surface plasmon resonance follows binding to a sensor surface in real time, without labels.

Experiment [4] concerns the target T1, human BSG2 (basigin isoform 2) on the …. Briefly: flow cytometry (FACS) on BAF3 cells expressing human BSG2. The method, then:
as §2

Experiment [5] has the same target. The experiment in a line: cell-based or functional assay.
For experiment [6] the target is unchanged. The experiment in a line: cell-based ECL (MSD) binding on whole cells expressing human BSG2.
Experiment [7] concerns the target T3, cynomolgus monkey BSG2 extracellular domain (cynomolgus monkey).
T3 construct: extracellular domain; also called Cynomolgus BSG2 ECD
The experiment in a line: SPR (Biacore), mAb captured by anti-mouse Fc, BSG2 ECD injected, 25 C. As for the experimental part:
as §3, §4, §5

In experiment [8] the target is T4, cynomolgus monkey BSG2 on the cell surface (cynomolgus monkey).
T4 construct: whole, on cells; also called BAF3-cyno BSG2; Cyno BSG2
Briefly: flow cytometry (FACS) on BAF3 cells expressing cynomolgus BSG2. As for the experimental part:
as §2

The target of experiment [9] is T4, cynomolgus monkey BSG2 on the cell …. The experiment in a line: cell-based ECL (MSD) binding on whole cells expressing cynomolgus BSG2. The method, then:
Cells were plated at 25,000 cells/well in 25 μl PBS using 96 well MSD high binding plates (MSD, catalogue no. L11XB-3), and incubated at 37° C. for 1 hour. 25 μl/well of blocking solution (30% serum in PBS) was added to the plates for 30 minutes at room temperature with mild agitation. Plates were then incubated with 25 μl/well of BSG2 antibodies (10 μg/ml) diluted in assay buffer (10% serum in PBS) for 1 hour at room temperature with mild agitation, and then washed 3× with PBS. Goat anti-mouse or anti-human IgG sulfotag was added at 1 μg/ml for 1 hour with mild agitation, and plates were washed 3× with PBS. After the final wash, plates were incubated with 2×MSD surfactant-free read buffer (catalogue no. R92TD-2) and the signal was detected on a MSD SECTOR Imager 6000. Data were analyzed using Graphpad Prism software and EC₅₀ values were reported.
as §1

B1: mouse anti-human BSG2 monoclonal antibody SZ66-2D2-2A1 (antibody, mouse IgG2a, kappa, V domains shown)
VH: QVQLQQPGAEIVRPGASVKLSCKASGYTFTDYWMNWVKLRPGQGLEWIGIIDPSDSYASYNQKFKGKATLTVDESSSTAYMQLSSLTSEDSAVYYCARKSYYGGNYYYAMDYWGQGTSVTVSS
VL: EIVLTQSPALMAASPGEKVTITCSVSSSINSINLHWYRQKSETSPKPWIYGTSNLASGVPVRFSGSGSGTSYSLTISSMEAEDAATYYCQQWSSYPLTFGAGTKLELKR
notes: Hybridoma antibody, mouse IgG2a/kappa
Take B1: the equilibrium dissociation constant (Kd) in experiment [1] stood at 0.15 nM; in experiment [3], 47 nM. Besides, the values for the EC50 in experiment [2], in experiment [4] and in [6] were 0.17 nM, 0.14 nM and 0.3 nM, respectively. Moreover, in experiment [3], the koff is 0.019 s⁻¹. Also, the kon in [3] was 410000 M⁻¹ s⁻¹. Besides, in experiment [5], the “CDC assay (% killing at 10 µg/ml Ab), MiaPaCa-2 pancreatic cancer cells” value was 84 % killing.

B2: mouse anti-human BSG2 monoclonal antibody EB41-1F4-2C1 (antibody, mouse IgG1, V domains shown)
VH: EVKLEESGGGLVQPGGSMKLSCVASGFTFSNFWMDWVRQSPEKGLEWVAEIRLKSTNYATHYAESVKGRFTISRDDSKSSVYLQMNNLRAEDTGIYYCTATSTGYWGQGTTLTVSS
VL: SIVMTQSPKILLVSAGDRVTITCKASQSVSNDVAWYQQKPGQSPKLLIYYASNRYTGVPDRFTGSGYGTDFTFTISTVQAEDLAVYFCQQDYSSPYTFGGGTKLEIK
notes: Hybridoma antibody, mouse IgG1/kappa
B2: the Kd in experiment [1] is 0.4 nM; in experiment [7], 1600 nM; in experiment [3], 2.5 nM. The EC50 in [2] worked out at 0.17 nM; in experiment [4], 0.2 nM; in [8], 0.71 nM; in [6] it was 0.4 nM; in experiment [9] it was 16 nM. Further, the koff is 0.6 s⁻¹ in experiment [7] and 0.001 s⁻¹ in [3]. For the same molecule, the kon was determined as 377000 M⁻¹ s⁻¹ in experiment [7] and 400000 M⁻¹ s⁻¹ in experiment [3].
